Where “and” joins values, the source holds several entries; their conditions need not be identical. Equal values may be shown once. Read-outs that look alike come from different tables or passages of the source.
B1: SBS position 3 G to A (symmetric double mutant) (dsDNA)
DNA 1: GTAAGTACTTAC
DNA 2: GTAAGTACTTAC
B2: FtsZ, full length (E. coli) (natural protein)
chain: MFEPMELTNDAVIKVIGVGGGGGNAVEHMVRERIEGVEFFAVNTDAQALRKTAVGQTIQIGSGITKGLGAGANPEVGRNAADEDRDALRAALEGADMVFIAAGMGGGTGTGAAPVVAEVAKDLGILTVAVVTKPFNFEGKKRMAFAEQGITELSKHVDSLITIPNDKLLKVLGRGISLLDAFGAANDVLKGAVQGIAELITRPGLMNVDFADVRTVMSEMGYAMMGSGVASGEDRAEEAAEMAISSPLLEDIDLSGARGVLVNITAGFDLRLDEFETVGNTIRAFASDNATVVIGTSLDPDMNDELRVTVVATGIGMDKRPEITLVTNKQVQQPVMDRYQQHGMAPLTQEQKPVAKVVNDNAPQTAKEPDYLDIPAFLRKQAD
B3: randomized DNA 2 (dsDNA)
DNA 1: CCTCAGCTGAGG
DNA 2: CCTCAGCTGAGG
B4: C-terminal truncated FtsZ, FtsZ(1–360), P0A9A6 1-360 (domain or fragment)
chain: MFEPMELTNDAVIKVIGVGGGGGNAVEHMVRERIEGVEFFAVNTDAQALRKTAVGQTIQIGSGITKGLGAGANPEVGRNAADEDRDALRAALEGADMVFIAAGMGGGTGTGAAPVVAEVAKDLGILTVAVVTKPFNFEGKKRMAFAEQGITELSKHVDSLITIPNDKLLKVLGRGISLLDAFGAANDVLKGAVQGIAELITRPGLMNVDFADVRTVMSEMGYAMMGSGVASGEDRAEEAAEMAISSPLLEDIDLSGARGVLVNITAGFDLRLDEFETVGNTIRAFASDNATVVIGTSLDPDMNDELRVTVVATGIGMDKRPEITLVTNKQVQQPVMDRYQQHGMAPLTQEQKPVAKVVND
B5: SlmA (synthetic lethal with a defective Min system) (natural protein)
chain: MAEKQTAKRNRREEILQSLALMLESSDGSQRITTAKLAASVGVSEAALYRHFPSKTRMFDSLIEFIEDSLITRINLILKDEKDTTARLRLIVLLLLGFGERNPGLTRILTGHALMFEQDRLQGRINQLFERIEAQLRQVLREKRMREGEGYTTDETLLASQILAFCEGMLSRFVRSEFKYRPTDDFDARWPLIAAQLQ
B6: randomized DNA 1 (dsDNA)
DNA 1: AGTCTATAGACT
DNA 2: AGTCTATAGACT

What was measured:
[1] = target: T1, SlmA (Escherichia coli, UniProt P0C093 1-198); test: fluorescence polarization
T1 sequence: B5 chain

[2] = target: B5; test: SAXS
[3] = target: the molecule itself; test: SAXS
[4] = target: T2, SlmA (synthetic lethal with a defective Min system) (E. coli), P0C093; test: fluorescence polarisation; details: remark: other sources report otherwise
T2 chain: B5 chain

[5] = target: B2; test: fluorescence polarisation
[6] = target: the molecule itself; test: SEC
[7] = target: B2; test: fluorescence polarisation; remark: listed apart in the source

B1
Kd [1]: ~60 nM

B2
stoichiometry N [2]: 1 SlmA:FtsZ
binding result [3]: binds

B3
binding result [1]: no binding

B4
Kd [4]: 148 nM

B5
Kd [5]: 142 nM and 130 nM and 205 nM
stoichiometry N [6]: 2
Kd [7]: 119 ± 11 nM

B6
binding result [1]: no binding

Source: publication PMC3020112 (The EMBO Journal, 2010)
